Data from publication PMC10016340.

Tests used:
[1] = molecular target: Cofilin-1 (human) (UniProt P23528); assay: SPR
[2] = molecular target: Ubiquitin carboxyl-terminal hydrolase isozyme L1 (UCH-L1) (human) (UniProt P09936); assay: SPR
Sequence of Ubiquitin carboxyl-terminal hydrolase isozyme L1 (UCH-L1) (human) (P09936 whole entry): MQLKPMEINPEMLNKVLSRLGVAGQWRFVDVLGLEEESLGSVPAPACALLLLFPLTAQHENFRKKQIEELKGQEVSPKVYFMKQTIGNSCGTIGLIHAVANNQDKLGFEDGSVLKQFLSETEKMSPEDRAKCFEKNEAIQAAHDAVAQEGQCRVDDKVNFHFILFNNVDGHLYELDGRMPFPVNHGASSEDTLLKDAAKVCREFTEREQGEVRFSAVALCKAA

Sequence of Cofilin-1 (human) (P23528 whole entry): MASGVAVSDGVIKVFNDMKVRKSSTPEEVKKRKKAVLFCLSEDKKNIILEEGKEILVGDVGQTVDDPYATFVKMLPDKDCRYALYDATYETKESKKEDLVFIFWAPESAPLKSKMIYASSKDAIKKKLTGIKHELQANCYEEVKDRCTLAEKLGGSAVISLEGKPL

Question: How did the Kd [1] turn out when “α-synuclein oligomers (αSOs) (from UniProt P37840 1-140) (complex)” was run?
Answer: 290 nM

Question: And the Kd [2]?
Answer: 600 nM
